First the molecules themselves.
B1: Drp1 (dynamin-related protein Drp1), wild type [not stated] / GST-MiD51^133-463, wild type [human] (parent)
chain 1: MEALIPVINKLQDVFNTVGADIIQLPQIVVVGTQSSGKSSVLESLVGRDLLPRGTGIVTRRPLILQLVHVSQEDKRKTTGEENGVEAEEWGKFLHTKNKLYTDFDEIRQEIENETERISGNNKGVSPEPIHLKIFSPNVVNLTLVDLPGMTKVPVGDQPKDIELQIRELILRFISNPNSIILAVTAANTDMATSEALKISREVDPDGRRTLAVITKLDLMDAGTDAMDVLMGRVIPVKLGIIGVVNRSQLDINNKKSVTDSIRDEYAFLQKKYPSLANRNGTKYLARTLNRLLMHHIRDCLPELKTRINVLAAQYQSLLNSYGEPVDDKSATLLQLITKFATEYCNTIEGTAKYIETSELCGGARICYIFHETFGRTLESVDPLGGLNTIDILTAIRNATGPRPALFVPEVSFELLVKRQIKRLEEPSLRCVELVHEEMQRIIQHCSNYSTQELLRFPKLHDAIVEVVTCLLRKRLPVTNEMVHNLVAIELAYINTKHPDFADACGLMNNNIEEQRRNRLARELPSAVSRDKVASGGGGVGDGVQEPTTGNWRGMLKTSKAEELLAEEKSKPIPIMPASPQKGHAVNLLDVPVPVARKLSAREQRDCEVIERLIKSYFLIVRKNIQDSVPKAVMHFLVNHVKDTLQSELVGQLYKSSLLDDLLTESEDMAQRRKEAADMLKALQGASQIIAEIRETHLW
chain 2: MSLQEKLLTYYRNRAAIPAGEQARAKQAAVDICAELRSFLRAKLPDMPLRDMYLSGSLYDDLQVVTADHIQLIVPLVLEQNLWSCIPGEDTIMNVPGFFLVRRENPEYFPRGSSYWDRCVVGGYLSPKTVADTFEKVVAGSINWPAIGSLLDYVIRPAPPPEALTLEVQYERDKHLFIDFLPSVTLGDTVLVAKPHRLAQYDNLWRLSLRPAETARLRALDQADSGCRSLCLKILKAICKSTPALGHLTASQLTNVILHLAQEEADWSPDMLADRFLQALRGLISYLEAGVLPSALNPKVNLFAELTPEEIDELGYTLYCSLSEPEVLLQT

In this test the parent is B1. Put plainly: GST pull-down, SDS-PAGE band quantification. As to conditions: with GST-MiD51^133-463, wild type [human], read off a plot.
Setting [1] is: Apo (no nucleotide), parent: 0.15.

With chain 1 K38A, the response is, setting by setting: (1 mM GDP-AlFx, parent: 0.085) 0.34 molar ratio; (1 mM GDP, parent: 0.14) 0.36 molar ratio; (1 mM GMP-PNP, parent: 0.69) 0.43 molar ratio; (1 mM GTP, parent: 0.37) 0.4 molar ratio; under setting [1], 0.36 molar ratio; (parent: 0.15) 0.36 molar ratio.

Turning to chain 1 G401A P402A R403A P404A, the response reads like this: (1 mM GDP-AlFx, parent: 0.085) 0.05 molar ratio; (1 mM GDP, parent: 0.14) 0.05 molar ratio; (1 mM GMP-PNP, parent: 0.69) 0.065 molar ratio; (1 mM GTP, parent: 0.37) 0.06 molar ratio; under setting [1], 0.07 molar ratio.

The record behind these values is paper PMC6355003.
